Laboratory results from publication PMC5009318, “Structural insights into the IgE mediated responses induced by the allergens Hev b 8 and Zea m 12 in their dimeric forms” (Scientific Reports, 2016).
Several values for one entry are separate records, joined by “and”; a condition that tells them apart may be missing. Identical values can stand only once.

Biological target: the molecule itself
Experiment: SEC; HiLoad 16/60 Superdex 75, 50 mM Tris-HCl pH 7.5; samples incubated 1 week at 4 °C and applied at 10 mg/mL; calibrated with myoglobin, alpha-chymotrypsin and BSA

B1: recombinant profilin allergen rHev b 8 (isoform Hev b 8.0102) from Hevea brasiliensis (natural protein)
chain: MSWQAYVDDHLMCEIEGNHLSAAAIIGQDGSVWAQSANFPQFKSEEITGIMSDFHEPGTLAPTGLYIGGTKYMVIQGEPGAVIRGKKGPGGVTVKKTNQALIIGIYDEPMTPGQCNMIVERLGDYLIDQGY
notes: Cloned in pET28c; The dimer is held by a disulfide bridge between Cys13 of both chains; also called monomeric rHev b 8; dimeric rHev b 8; source: E. coli Rosetta (DE3), purified (Ni-NTA, enterokinase cleavage, mono Q anion exchange; oligomers separated by SEC)
stoichiometry N: 2 and 3 and 4
